The record followed here is US12329801B2, “Regenerative polypeptides and uses thereof” (JUVENA THERAPEUTICS, INC., priority 2021, dated 2025).

For the assay, the system named is DM1 human myoblast. Nature of the assay: Myogenic gene expression fold change in DM1 human myoblast. The format is cell-based. As to conditions: 48 h; BMP7 50 ng/mL, Butyrate 100 nM, IGF2 200 ng/mL. The protocol: Myoblasts were cultured 48 h in the presence of factors (BMP7 50 ng/mL, Butyrate 100 nM, IGF2 200 ng/mL).
Myoblasts were cultured 96 h in the presence of factors (IGF2 200 ng/ml). […] Myoblasts were cultured 48 h in the presence of factors (IGF2 200 ng/mL).
IGF2 was tested individually for its ability to promote proliferation and/or fusion of human muscle progenitor cells from an individual with myotonic dystrophy type 1 (hMD)—a muscular dystrophy caused by mutations in the DMPK1 gene. The effect of IGF2 on myogenic activity was assayed in biological triplicate across a range of concentrations centered around expected physiological levels by adding each factor to hMD myoblasts for 72 hours with daily media changes (DMEM +2% horse serum) and a second pulse of factors at the first media change. After 72 or 96 hours, cells were pulsed for 2-5 hours with EdU (30 uM), ethanol fixed, stained with Hoescht 3342, immunostained for proliferation—as measured by the percent of cells staining positive for EdU (% EdU)-, and immunostained for differentiation—as measured by the increase in cellular area staining positive for embryonic myosin heavy chain (% eMyHC) relative to the negative controls, which received media and vehicle only. Wells were imaged on a Keyence BZ-100 at 4×, the images quantified in Cell Profiler, and the statistics were computed in R. Additionally, RNA was extracted from myoblast and select transcript abundances quantified by qPCR.

B1: BMP7: factor BMP7, 50 ng/mL, tested on DM1 human myoblast (protein, UniProt P18075 293-431, looked up)
Bone morphogenetic protein 7: STGSKQRSQNRSKTPKNQEALRMANVAENSSSDQRQACKKHELYVSFRDLGWQDWIIAPEGYAAYYCEGECAFPLNSYMNATNHAIVQTLVHFINPETVPKPCCAPTQLNAISVLYFDDSSNVILKKYRNMVVRACGCH
As to B1, the “MYF5 expression fold change compared to FM (vehicle)” value is on record as 0.709, the “MYOD1 expression fold change compared to FM (vehicle)” value came to 0.709 and the “MYOG expression fold change compared to FM (vehicle)” value came out at 0.361.
